Measurements as given in patent US20140341939A1 (NATIONAL UNIVERSITY CORPORATION KOCHI UNIVERSITY, priority 2011, published 2014).
Where no end group is shown, it is not given here. [ ]: non-standard residue; d: D form. The star is where a group is joined. Biotin = O=C1N[C@H]2[C@H](CS[C@H]2CCCCC(=O)*)N1; βAla = NCCC(=O)O

Assays:
[1] = molecular target: T1, HLA-DR4 molecule (Homo sapiens, UniProt P01903+P01911, A100R/A169T/D86S/F76Y/I96L/K127E/L162R/M171V/N62H/P40V/Q125Y/R42H/S133A/S149N/S66Y/V115G/V209L/W38E); experiment: Peptide binding to HLA-DR4 molecule on CH1-DR4 cells with p-chlorophenol; details: PCP added, 37° C. 4 hr, FITC-streptavidin (FIG. 31)
T1 construct: expressed in transfected cells; host or cells: CH1-DRB1*04:05 (CH1-DR4) cells
Procedure: CH1-DRB1*04:05 cells (CH1-DR4 cells) were suspended in 20% FCS IMDM ([…]) at 2×10^6/ml, so that 50 μl could provide 1×10^5 cells/well in a 96 well U plate. Then, 20 μM bTR174 (PSK^bio[…]^bioPβA: SEQ ID NO: 41) (biotinylation index peptide) was added at 100 μl per well, and IMDM containing 8 mM PCP was further added at 50 μl per well, and finally, CH1-DR4 cells were added at 50 μl (1×10^5/well) and the mixture was incubated at 37° C. for 4 hr. Free peptide was removed by centrifugation, the cells were stained with FITC-streptavidin, and measured by flow cytometer. […] By adding a competitive peptide, which is generated by adding a peptidase resistant sequence to the terminal of an unlabeled peptide, to this experiment system, the binding activity of the unlabeled peptide can be quantitatively measured.

[2] = molecular target: T2, HLA-DR molecule (Homo sapiens, UniProt P01903+P01911, A100R/A169T/D86S/F76Y/I96L/K127E/L162R/M171V/N62H/P40V/Q125Y/R42H/S133A/S149N/S66Y/V115G/V209L/W38E); experiment: Binding of biotinylated W332 peptide to CH1-DR4 cell; details: cultured 5 hr, FITC-streptavidin, flow cytometry (FIG. 29A)
T2 construct: expressed in transfected cells; host or cells: CH1-DR4 (CH1-DRB1*04:05) cells

Row | binding to cell that expresses HLA-DR molecule [2] | Substance | binding of biotin-labeled peptide to HLA-DR4 molecule [1]
1 | – | PSK^bioREFKLSKVWRDQK^bioPβA (PSK(Biotin)REFKLSKVWRDQK(Biotin)P[βAla]) [bTR174, biotinylation index peptide] | replaced a peptide endogenously bound to an HLA-DR4 molecule, in a PCP concentration dependent manner
2 | bind to CH1-DR4 cell | PSK^bioKRYFKLSHLQMHSRKHK^bioPβA (PSK(Biotin)KRYFKLSHLQMHSRKHK(Biotin)P[βAla]) [PbW332bPβ] | –
